The text below walks through data of the nanobody polyreactivity screen of Harvey et al. (2022).

The nature of this series: yeast display, Sf9 membrane polyspecificity reagent, FACS + sequencing; frameworks hold sequencing errors. The gist of the method:
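Synthetic nanobody libraries on Saccharomyces cerevisiae BJ5465 were galactose-induced for 36–48 hours, stained 1 hour at 4 °C with 10% biotinylated, detergent-solubilized Sf9 membrane reagent and enriched on streptavidin microbeads. FACS then separated cells into low and high (top ~1%) gates by anti-HA (expression) and streptavidin (reagent binding) fluorescence. Genes were colony-PCR amplified, MiSeq 2 × 250 sequenced and CDR-length filtered. A clone's polyreactivity label is that of its gate of origin.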
Take “PVQLVESGGRLVQEGGSLRLICAASARIFPYYSMGWSRPAPGKERELVAAITTSGCRTYYADSVKGRFTISRDNAKYSVYLLMNSMKPEYTAVYVCNKYARGYDMDYWGQGTQVTVSS”: the “polyreactivity (PSR sort gate)” value is given as “high polyreactivity”.
The entry for “QVQLVESGGGLVQAGGSLRLSCAASGRIFYYYAMGWYRQAPGKERELVAVISRGGRTKYADSVKGRFTISRDNAKNTVYLQMNILKPEDTAVYYCAAYPSYYGDSGLRYDYWGQGTQVTVSS” is “high polyreactivity”; for “QVQLVESGGGLVQAGGSLRLSCAASGSIFYSNVMGWYRQAPGKERELVAAIRYSGVGTYYADSVKGRFTISRDNAKNTVYLLMNSLKPEDTAVYYCNAVTKVGYLRRRDYWGQGTKVTVSS” it is “low polyreactivity”.
For the sequence “QVQLVESGGGLVQAGGSLRLSCAASGSTFPYYAMGWYRQAPGKEWDLVAAISASVGSTYYADSVKGRFTISRDNAKNTVYLQMNSLKPEDTAVYYCNRVRSSYVYVSRFDSWGQGNQVTVSS”, the “polyreactivity (PSR sort gate)” value is “high polyreactivity”.
To “QVQLVESAGGLVQAGGSLRLSCAASGGIFGINAMGWYRQAPGKERELVAAINLSGGRTYYADSVKGRFTISRDNAKNTVYLQMNSLKPEDTAVYYCAAFYGYSLYGHYEYWGQGTQVTVSS” belongs “high polyreactivity”.
To “QVQLVESGGGLVQAGGSLRLSCAASGFTFARYAMGWYRQAPGKERELVAAISRGTTTYYADSVKGRFTISRDNAKNTVYLQMNILKPDDTAVYYCAAVTTRTYPGRYYYWGQGTQVTVSS” belongs “high polyreactivity”; to “QVQLVESGGGLVQAGGSLRLSCAASGRIFWYYAMGGYRQAPGKEREFVATINTSGGSTYYADSLKGRFTISRDYARSTVCLQMNSLTPEDTAVYYCYAACRYYRTEYYSWGQGTQVTVSS”, “low polyreactivity”.
The entry for “QVQLVESGVGIVQAGGSLRLSCAASGRIISGYAMGWYRHAPGKERELVATISSGGGTNYADSVKGRFTISRDNAKNTVYLQMNSLKPEDTAVYYCNKAWGYWSIRGVTHRYGYWGQGTQVTVSS” is “high polyreactivity”.
For the sequence “QVQLVESVGGLVQAGGSLRLSCAASGSNFYVNAMGWYRQAPGKERELVAAISRRGGSTYYADSVKGRFTISRDNAKNTVSLQMNSLKPEDTAVYYCNKAIRGQAPSGPEYYYWGHGTQVTVSS”, the “polyreactivity (PSR sort gate)” value is given as “high polyreactivity”.
For “QVQLVESGGGLVQAGGSLRLSCAASGYIFKIKAMGWYRQAPGKERELVATITWSTGTTYYADSVKGRFTISRDNAKNTVYLQMNSLKPEDTAVYYCNATAIIRIGVLPGDYWGQGTQVTVSS”, the “polyreactivity (PSR sort gate)” value was “low polyreactivity”.
“QVQLVESGGGLVQAGGSLRLSCAASGSIFTSYGMGWYRQAPGKERELVAAITYSGDRTYYADSVKGRFTISRDNAKITVYFQMNSLIPEDTAVYYCNVAYVYGSFRRRPMGYWGQGTQVTVSS”: the “polyreactivity (PSR sort gate)” value is “high polyreactivity”.
On to “QVQLVESGGGLVQAGGSLRLSCAASGRTFKDYAMGWYRQAPGKERELVAGINGSGGSTYYADSVKGRFTISRDYAKNTVYLQMNSLKPEDTAVYYCNADFGYWWDGRRYDYWGQGTQVTVSS”, for which the “polyreactivity (PSR sort gate)” value is on record as “low polyreactivity”.
The entry for “QVQLVESGGRLVQAGGSLRLSCAPSGIIFIWNTMGWYRQAPGKESEFVAAISRSGSGTSYADSVKGRFTISRDNAKNTVYLQMNSLKPEDTAVYYCAARLECPYDMYYWGQGTQVTVSS” is “low polyreactivity”; for “QVQLVESGGGLVQAGGSLRLSCAASGSIFPGNTMGWYRQAPGKERELVAVITKRGGRTYYADSVKGRFTISRDNAKNTVYLQMNSLKPEDTAVYYCARAPSYSTGVSIRDYWGQGTQVTVSS” it is “high polyreactivity”; for “QVQLVESGGGLVQAGGSLRLSCAASGSTFYDYAMGWYRQAPWKERELVAAITSGGSTYADSVKGRFTISRYNAKNTVYLQMNSLKPEDTAVYYCNKDFVVEYWWHHVYVYYYLGDYWGQGTQVTVSS” it is “low polyreactivity”.
The entry for “QVQLVESGGGLVQAGGSLRLSGAASGRIFYSNAMGWYRQAHGKERELVAAITRAGSTNYADSVKGSFTISRDIAKNTVYLQMNSLKPDDTAVYDCAATYGCSVFEYDYWGQGTQVTVSS” is “low polyreactivity”; for “QVQLVESGGGLVQAGGSLRLSCAASGIIFATYAMGWYRQAPGKERELVASISTGDSTNYADSVKGRFTISRDNAKNTVYLQMNSLKPEDTAVYYCNADSYPYYVYGSNDYWGQGTQVTVSS” it is “low polyreactivity”; for “QVQLVESGGGLVQAGGSLRLSCAASGRTLGRYAMGWYRHAPGKERELVADISFRGGSTYYADSVKGRFTISRDNAKNTVYLQMNSLKPVDTAVYYCAAVPGPASKYGYWGQGTQVTVSS” it is “high polyreactivity”.
To “QVQLVESGGGLVQAGGSLRLSCAASGRTFIRYAMGGYRQATGKERELVAAISWSGGSTYYADSVKGRFTISRDNAKNTVYLQMNSLKPEDTAVYYCARRVGYKFSYDYWGQGTQVTVSS” belongs “high polyreactivity”; to “QVQLVESGGGLVQAGGSLRLSCAASGFIFRRYAMGWSRPAPGNERELVAAITWSGGSTYYADSVKGRFTISRDNAKNTVYLQMNSLKPEDTAVYYCAAVYRQSGDYYSRDYYWGQGTQVTVSS”, “high polyreactivity”; to “QVQLVESGGGLVQAGGSLRLSCAASGSTFYIYTMGWYRQAPGKERELVATISWDGGNTYYADSVKGRFTISRDNAKNTVYLQMNSLKPEDTAVYYCARDSSIWSHGSWYDYWGQGTQVTVSS”, “low polyreactivity”.
For “QVQLVESGGGLVQAGGSLRLSCAASGLTFIEYAMGWYRQAPGKERELVAAISSGGRTYYADSVKGRFTISRDNPKNTVYLQMNSLKPEDTAVYYCNDRGYRRWYNYWGQGTQVTVSS”, the “polyreactivity (PSR sort gate)” value is “high polyreactivity”.
To “QVQLVESGGGLVQAGGSLRLSCDASGRTFGRNAMGWYRQAPGERELGAVISRGGSTYYADSVKGRFTISRDNAKNTVYLQRNSLKPEDTAVYYCNADTVYTRTAPYDYWGQGTQVTVSS” belongs “low polyreactivity”; to “QVQLVESGGGLVQAGGSLRLSCAASGITFYKYVMGWYRKAPGKERELVAAISSVGSTYYADSVKGRFTISRDNAKNTVYLQMNSLKPEDTAVYYCAAKYWKWYHYGFGYWGQGTQVTVSS”, “high polyreactivity”; to “QVQLVESGGGLVQAGGSLRLSCAASGRTFEGNAMGWYRQAPGKERELVAAISTSGGRTYYADSVKGRFTISRDNAKNTVYLQMNSLKPDDTAVYYCAVDHYSSYEYWGQGTQVTVSS”, “low polyreactivity”.
“QVQLVESGGGLVQAGGSLRLSCAASGRTFVGYAMGWYRQAPGKERELVAAITSGGGTYYADSVKGRFTISRDNAKNTVYLQMNSLKPEDTAVYYCNRASRRGYYYPYNYWGQGTQVTVSS”: the “polyreactivity (PSR sort gate)” value is on record as “high polyreactivity”.
On to “QVQLVESGGGLVQAGGSLRLSCAASGGIFPAYAMGWYRQAPGKERELVAAITSSGASTYADSVKGRFTISRDNAKNTVYLQMNSLKPEDTAVYYCNADDTTVILEMDYWGQGTQVTVSS”, for which the “polyreactivity (PSR sort gate)” value is recorded as “low polyreactivity”.
The entry for “QVQLVESGGGLVQAGGSLRLSCAASASILVRYAMVCYRQAPGKKREMVSAITATSGGTYYADSVKGRFTFSLDNAKNTVYLQMYSLKPEDTAVYYCNADGGSGAYLDLTITDYDYWGQGTQVTVSS” is “low polyreactivity”.
For the sequence “QVQLVESGGGLVEAGGSLRISCAASGYIFLRNAMGWYRQAPGKERELVAAIRRTGGSTYYADSVKGRFTISRDNAKNSVYVQMNSLKPEASAVYYCAKRSYTGYEYWGQGNQVTVSS”, the “polyreactivity (PSR sort gate)” value is recorded as “low polyreactivity”.
As to “QVQLVESGGGLVQAGVSLRLSCAASGRTFAYNDMGCYRQAPGKERELVAAISWSDGTTYYADSVKGRFTSSRDNAKNTVYLQMNSLKPEDTAVYYCAAESYPSEVASYVSEYDYWGQGTQVTVSS”, the “polyreactivity (PSR sort gate)” value was “low polyreactivity”.
For “QVQLVESGGGLVQAGGSLRLSCAASGNIFVNYAMGWYRQAPGKERELVASINYNGGNTYYADSVKGRFTISRDNAKNTVYLQMNSLKPEDTAVYYCAKDGGGLLRWYTDEYDYWGQGTQVNVSS”, the “polyreactivity (PSR sort gate)” value is reported as “low polyreactivity”.
The entry for “KSGGGLVQAGGSLRLSCAASGRIYVEYAMAWYKQAPGKERELVASISWSGDSTYYAESVKGRFTISRDNAKNTVYSQKKSLKPEATAVYYCNADGQVGYAVSYDYWGQGTQVTVSS” is “low polyreactivity”; for “QVQLVESGGGLVQAGGSLRLSCAASGRIFGRYAMGWYRQAPGKERELVATITYTGGSTYYADSVKGRFTISRDNAKNTVYLQMNSLKPEDTAVYSCNAVKPVSRTYDSSYYWGPGTQVTVSS” it is “high polyreactivity”; for “QVQLVESGGGLVQAGGSLRLSCAASGLIFYNYAMGWYRQAPGKERELVAAISRSGGRTYYADSVKGRFTISRDNAKNTVYLQMNSLKPEDTAVYYCNAVHVSIEGYYWGQGTQVTVSS” it is “high polyreactivity”.
To “QVQLVESAGGLVQAGGILRLSCAASGITIYRYAMGWYRQAPGKERELVADISSGGGTTYYADSVKGRFTISRYNAKNTVYLQMNSQKPEDTAVYYCAADYGFRYPLYDYWGQGTQVTVSS” belongs “low polyreactivity”; to “QVQLVESGGGLVQAGGSLRLSCAASGRTFYVNAMGWYRQAPGKERELVAAIRYSDGRTYYADSVKGRFTISRDNAKNTVYLQMNSLKPEDTAVYYCAVGSRSWPYDYWGQGTQVTVSS”, “high polyreactivity”; to “QVQLVESGGGLVQAGGSLRLSCASSGRTIDGYAMGWYRQAPGKERELVATITWSGDSTYYADSVKGRFTISRDNAKNTVYLKMNSLKPEDTSVYYCAADSYYAYPYGYGYWGQGTQVTVSS”, “high polyreactivity”.
To “QVQLVESGGGLVQAGVSLRLSCAASGSTSSRNAMGRYRQAPGKEWELVAAITSGTRTYYADSVKGRFTISRDNAKNTVYLQMNSLKPEDTAVYYCARGRVSRYTNTDYDYWGQGTQVTVSS” belongs “high polyreactivity”.
As to “QVQLVESGGSLVQAGGSLRVSCAASRSIFEHYAMGWYRQAHGKERELVATISSASRTHYADSVKGRFTISRDNAKNTVYLQRNSLKREDTAVYYCAARLYYVWYAPYYYWGQGTQVSVSS”, the “polyreactivity (PSR sort gate)” value is on record as “high polyreactivity”.
The entry for “QVQLVESGGGLVQAGGSLRLSCAASGSTFARYAMGWYRQAPGKERELVAVITQSGSSTYYADSVKGRFTISRDNAKNTVYLQMNSLKPEDTAVYYCAAVGIDYTRYGRYWYSYDYWGQGTQVTVSS” is “high polyreactivity”; for “QVQLVESGGGLVQAGGSLRLRCAASGSIFKSNAMGWYRQAPGKERELVAAISNGGITNYADSVKGRFTISRDNAKNTVYLQMNSLKPEDTAVYYCATSDVREIWVDYCGQGTQVTVSS” it is “low polyreactivity”.
